{"source": "the supplement of paper PMC10567573", "parents": {"B1": {"name": "CIB1 (parent)", "chain": "DLSRLVNCLTGEGEDTRLSASEMK"}}}
{"variants_of": "B1", "assay": "protein stability index of a GFP-peptide fusion (GPS, HEK-293T) (PSI 1-6); higher = more stable", "settings": "c terminus: a fixed tail appended"}
{"variant": "DLSRLVNCLTGEGEDTRNSASEMK", "note": "[L18N]", "protein stability index": 3.75}
{"variant": "DLSRLVNCLTGEGEDTRPSASEMK", "note": "[L18P]", "protein stability index": 3.79}
{"variant": "DLSRLVNCLTGEGEDTRQSASEMK", "note": "[L18Q]", "protein stability index": 2.96}
{"variant": "DLSRLVNCLTGEGEDTRRSASEMK", "note": "[L18R]", "protein stability index": 4.11}
{"variant": "DLSRLVNCLTGEGEDTRSSASEMK", "note": "[L18S]", "protein stability index": 3.06}
{"variant": "DLSRLVNCLTGEGEDTRVSASEMK", "note": "[L18V]", "protein stability index": 3.63}
{"variant": "DLSRLVNCLTGEGEDTRWSASEMK", "note": "[L18W]", "protein stability index": 2.78}
{"variant": "DLSRLVNCLTGEGEDTRYSASEMK", "note": "[L18Y]", "protein stability index": 3.12}
{"variant": "DLSRLVNCLTGEGEDTRLAASEMK", "note": "[S19A]", "protein stability index": 3.2}
{"variant": "DLSRLVNCLTGEGEDTRLCASEMK", "note": "[S19C]", "protein stability index": 1.89}
{"variant": "DLSRLVNCLTGEGEDTRLDASEMK", "note": "[S19D]", "protein stability index": 3.17}
{"variant": "DLSRLVNCLTGEGEDTRLEASEMK", "note": "[S19E]", "protein stability index": 3.61}
{"variant": "DLSRLVNCLTGEGEDTRLFASEMK", "note": "[S19F]", "protein stability index": 4.13}
{"variant": "DLSRLVNCLTGEGEDTRLGASEMK", "note": "[S19G]", "protein stability index": 3.56}
{"variant": "DLSRLVNCLTGEGEDTRLHASEMK", "note": "[S19H]", "protein stability index": 3.01}
{"variant": "DLSRLVNCLTGEGEDTRLIASEMK", "note": "[S19I]", "protein stability index": 2.62}
{"variant": "DLSRLVNCLTGEGEDTRLMASEMK", "note": "[S19M]", "protein stability index": 2.57}
{"variant": "DLSRLVNCLTGEGEDTRLNASEMK", "note": "[S19N]", "protein stability index": 4.35}
{"variant": "DLSRLVNCLTGEGEDTRLPASEMK", "note": "[S19P]", "protein stability index": 3.61}
{"variant": "DLSRLVNCLTGEGEDTRLQASEMK", "note": "[S19Q]", "protein stability index": 2.78}
{"variant": "DLSRLVNCLTGEGEDTRLRASEMK", "note": "[S19R]", "protein stability index": 2.6}
{"variant": "DLSRLVNCLTGEGEDTRLTASEMK", "note": "[S19T]", "protein stability index": 2.01}
{"variant": "DLSRLVNCLTGEGEDTRLWASEMK", "note": "[S19W]", "protein stability index": 2.26}
{"variant": "DLSRLVNCLTGEGEDTRLYASEMK", "note": "[S19Y]", "protein stability index": 2.29}
{"variant": "DLSRLVNCLTGEGEDTRLSCSEMK", "note": "[A20C]", "protein stability index": 2.31}
{"variant": "DLSRLVNCLTGEGEDTRLSDSEMK", "note": "[A20D]", "protein stability index": 2.92}
{"variant": "DLSRLVNCLTGEGEDTRLSESEMK", "note": "[A20E]", "protein stability index": 4.11}
{"variant": "DLSRLVNCLTGEGEDTRLSFSEMK", "note": "[A20F]", "protein stability index": 1.8}
{"variant": "DLSRLVNCLTGEGEDTRLSGSEMK", "note": "[A20G]", "protein stability index": 3.69}
{"variant": "DLSRLVNCLTGEGEDTRLSHSEMK", "note": "[A20H]", "protein stability index": 2.98}
{"variant": "DLSRLVNCLTGEGEDTRLSKSEMK", "note": "[A20K]", "protein stability index": 1.61}
{"variant": "DLSRLVNCLTGEGEDTRLSMSEMK", "note": "[A20M]", "protein stability index": 2.19}
{"variant": "DLSRLVNCLTGEGEDTRLSNSEMK", "note": "[A20N]", "protein stability index": 2.75}
{"variant": "DLSRLVNCLTGEGEDTRLSPSEMK", "note": "[A20P]", "protein stability index": 3.15}
{"variant": "DLSRLVNCLTGEGEDTRLSQSEMK", "note": "[A20Q]", "protein stability index": 3.71}
{"variant": "DLSRLVNCLTGEGEDTRLSSSEMK", "note": "[A20S]", "protein stability index": 2.9}
{"variant": "DLSRLVNCLTGEGEDTRLSTSEMK", "note": "[A20T]", "protein stability index": 1.89}
{"variant": "DLSRLVNCLTGEGEDTRLSVSEMK", "note": "[A20V]", "protein stability index": 2.17}
{"variant": "DLSRLVNCLTGEGEDTRLSWSEMK", "note": "[A20W]", "protein stability index": 3.38}
{"variant": "DLSRLVNCLTGEGEDTRLSYSEMK", "note": "[A20Y]", "protein stability index": 2.15}
{"variant": "DLSRLVNCLTGEGEDTRLSAAEMK", "note": "[S21A]", "protein stability index": 2.1}
{"variant": "DLSRLVNCLTGEGEDTRLSACEMK", "note": "[S21C]", "protein stability index": 2.63}
{"variant": "DLSRLVNCLTGEGEDTRLSADEMK", "note": "[S21D]", "protein stability index": 3.57}
{"variant": "DLSRLVNCLTGEGEDTRLSAEEMK", "note": "[S21E]", "protein stability index": 4.15}
{"variant": "DLSRLVNCLTGEGEDTRLSAFEMK", "note": "[S21F]", "protein stability index": 2.36}
{"variant": "DLSRLVNCLTGEGEDTRLSAGEMK", "note": "[S21G]", "protein stability index": 1.68}
{"variant": "DLSRLVNCLTGEGEDTRLSAHEMK", "note": "[S21H]", "protein stability index": 3.01}
{"variant": "DLSRLVNCLTGEGEDTRLSAKEMK", "note": "[S21K]", "protein stability index": 4.3}
{"variant": "DLSRLVNCLTGEGEDTRLSALEMK", "note": "[S21L]", "protein stability index": 2.06}
{"variant": "DLSRLVNCLTGEGEDTRLSAMEMK", "note": "[S21M]", "protein stability index": 2.98}
{"variant": "DLSRLVNCLTGEGEDTRLSAPEMK", "note": "[S21P]", "protein stability index": 3.5}
{"variant": "DLSRLVNCLTGEGEDTRLSAREMK", "note": "[S21R]", "protein stability index": 1.9}
{"variant": "DLSRLVNCLTGEGEDTRLSATEMK", "note": "[S21T]", "protein stability index": 3.1}
{"variant": "DLSRLVNCLTGEGEDTRLSAVEMK", "note": "[S21V]", "protein stability index": 2.17}
{"variant": "DLSRLVNCLTGEGEDTRLSAYEMK", "note": "[S21Y]", "protein stability index": 3.14}
{"variant": "DLSRLVNCLTGEGEDTRLSASAMK", "note": "[E22A]", "protein stability index": 3.08}
{"variant": "DLSRLVNCLTGEGEDTRLSASCMK", "note": "[E22C]", "protein stability index": 2.76}
{"variant": "DLSRLVNCLTGEGEDTRLSASFMK", "note": "[E22F]", "protein stability index": 2.21}
{"variant": "DLSRLVNCLTGEGEDTRLSASGMK", "note": "[E22G]", "protein stability index": 2.81}
{"variant": "DLSRLVNCLTGEGEDTRLSASHMK", "note": "[E22H]", "protein stability index": 2.49}
{"variant": "DLSRLVNCLTGEGEDTRLSASIMK", "note": "[E22I]", "protein stability index": 2.83}
{"variant": "DLSRLVNCLTGEGEDTRLSASKMK", "note": "[E22K]", "protein stability index": 4.44}
{"variant": "DLSRLVNCLTGEGEDTRLSASLMK", "note": "[E22L]", "protein stability index": 2.29}
{"variant": "DLSRLVNCLTGEGEDTRLSASMMK", "note": "[E22M]", "protein stability index": 2.46}
{"variant": "DLSRLVNCLTGEGEDTRLSASNMK", "note": "[E22N]", "protein stability index": 3.54}
{"variant": "DLSRLVNCLTGEGEDTRLSASPMK", "note": "[E22P]", "protein stability index": 4.12}
{"variant": "DLSRLVNCLTGEGEDTRLSASRMK", "note": "[E22R]", "protein stability index": 2.88}
{"variant": "DLSRLVNCLTGEGEDTRLSASSMK", "note": "[E22S]", "protein stability index": 3.35}
{"variant": "DLSRLVNCLTGEGEDTRLSASTMK", "note": "[E22T]", "protein stability index": 3.61}
{"variant": "DLSRLVNCLTGEGEDTRLSASYMK", "note": "[E22Y]", "protein stability index": 3.08}
{"variant": "DLSRLVNCLTGEGEDTRLSASEAK", "note": "[M23A]", "protein stability index": 3.76}
{"variant": "DLSRLVNCLTGEGEDTRLSASECK", "note": "[M23C]", "protein stability index": 2.85}
{"variant": "DLSRLVNCLTGEGEDTRLSASEDK", "note": "[M23D]", "protein stability index": 2.32}
{"variant": "DLSRLVNCLTGEGEDTRLSASEFK", "note": "[M23F]", "protein stability index": 3.12}
{"variant": "DLSRLVNCLTGEGEDTRLSASEHK", "note": "[M23H]", "protein stability index": 2.71}
{"variant": "DLSRLVNCLTGEGEDTRLSASEIK", "note": "[M23I]", "protein stability index": 3.03}
{"variant": "DLSRLVNCLTGEGEDTRLSASEKK", "note": "[M23K]", "protein stability index": 4.14}
{"variant": "DLSRLVNCLTGEGEDTRLSASELK", "note": "[M23L]", "protein stability index": 3.23}
{"variant": "DLSRLVNCLTGEGEDTRLSASENK", "note": "[M23N]", "protein stability index": 3.46}
{"variant": "DLSRLVNCLTGEGEDTRLSASEQK", "note": "[M23Q]", "protein stability index": 2.6}
{"variant": "DLSRLVNCLTGEGEDTRLSASERK", "note": "[M23R]", "protein stability index": 2.68}
{"variant": "DLSRLVNCLTGEGEDTRLSASETK", "note": "[M23T]", "protein stability index": 3.14}
{"variant": "DLSRLVNCLTGEGEDTRLSASEVK", "note": "[M23V]", "protein stability index": 3.17}
{"variant": "DLSRLVNCLTGEGEDTRLSASEWK", "note": "[M23W]", "protein stability index": 2.81}
{"variant": "DLSRLVNCLTGEGEDTRLSASEYK", "note": "[M23Y]", "protein stability index": 2.7}
{"variant": "DLSRLVNCLTGEGEDTRLSASEMA", "note": "[K24A]", "protein stability index": 3.25}
{"variant": "DLSRLVNCLTGEGEDTRLSASEMC", "note": "[K24C]", "protein stability index": 3.03}
{"variant": "DLSRLVNCLTGEGEDTRLSASEME", "note": "[K24E]", "protein stability index": 3.9}
{"variant": "DLSRLVNCLTGEGEDTRLSASEMF", "note": "[K24F]", "protein stability index": 2.57}
{"variant": "DLSRLVNCLTGEGEDTRLSASEMH", "note": "[K24H]", "protein stability index": 2.37}
{"variant": "DLSRLVNCLTGEGEDTRLSASEMI", "note": "[K24I]", "protein stability index": 1.81}
{"variant": "DLSRLVNCLTGEGEDTRLSASEMM", "note": "[K24M]", "protein stability index": 2.45}
{"variant": "DLSRLVNCLTGEGEDTRLSASEMN", "note": "[K24N]", "protein stability index": 2.99}
{"variant": "DLSRLVNCLTGEGEDTRLSASEMP", "note": "[K24P]", "protein stability index": 2.67}
